Test results published in patent publication US7083962B2, “Carbonyl reductases, polynucleotides comprising DNA encoding the same, methods for producing the same, and methods for producing optically active alcohol utilizing the same” (Daicel Chemical Industries Ltd., priority 2004, dated 2006).

Experiments:
carbonyl reductase [1] = assay: Substrate specificity: NADPH-dependent reduction by the carbonyl reductase obtained in Example 1; format: biochemical, Torulaspora delbrueckii; settings: substrate 5 mM, coenzyme NADPH; reduction of 3,4-dimethoxyphenylacetone regarded as 100
Experimental: (§1) A reaction solution comprising 50 mM potassium phosphate buffer (pH 6.5), 0.2 mM NADPH, 5 mM 3,4-dimethoxyphenylacetone, and an enzyme is reacted at 30° C. Any decrease in absorbance at 340 nm accompanying a decrease in NADPH is measured. 1U is defined as the amount of enzyme which catalyzes a 1 μmol decrease of NADPH in one minute.
(§2) The enzyme obtained in Example 1 was reacted with various ketones, ketoesters, and soon. The activities of the reduction reactions were expressed as relative activities, where the reduction of 3,4-dimethoxyphenylacetone was regarded as 100 (Table 2) (substrate specificity of carbonyl reductase). The activity of dehydrogenating 1-(3,4-dimethoxyphenyl)-2-propanol was measured as follows: A reaction was performed at 30° C. in a reaction solution comprising 50 mM Tris-HCl buffer (pH 8.5), 2.5 mM NADP^+, 5 mM 1-(3,4-dimethoxyphenyl)-2-propanol, and the enzyme. An increase in absorbance at 340 nm, accompanying NADPH production, was measured. 1 U was defined as the amount of enzyme catalyzing the production of 1 μmol NADPH per minute. In addition, the activity of reducing NADH-dependent 3,4-dimethoxyphenylacetone was measured as follows: A reaction was performed at 30° C. in a reaction solution comprising 50 mM potassium phosphate buffer (pH 6.5), 0.2 mM NADH, 5 mM 3,4-dimethoxyphenylacetone, and the enzyme, and decrease in absorbance at 340 nm, accompanying decrease in NADH, was measured. 1 U was defined as the amount of enzyme catalyzing a decrease of 1 μmol NADH per minute.

carbonyl reductase [2] = assay: NADH-dependent 3,4-dimethoxyphenylacetone-reducing activity; format: biochemical, Torulaspora delbrueckii; settings: substrate 5 mM, coenzyme NADH, pH 6.5, 30° C.
Experimental: as §2

[3] = 3,4-dimethoxyphenylacetone-reducing activity of the purified enzyme (specific activity, pH and temperature dependency); format: biochemical, Torulaspora delbrueckii; settings: 3,4-dimethoxyphenylacetone reduction, NADPH, pH 6.5, 30° C.
Experimental: as §1
The specific activity of the purified enzyme was 196 mU/mg.
By changing the pH using potassium phosphate buffer, sodium acetate buffer, and Britton-Robinson buffer, the 3,4-dimethoxyphenylacetone-reducing activity of the enzyme obtained in Example 1 was investigated. Activity at each pH was expressed as a relative activity, where the maximum activity was regarded as 100 (FIG. 2). Optimal pH (showing 80% or more relative activity) was 5.5 to 6.5.
Of the standard reaction conditions, only the temperature was changed, and the 3,4-dimethoxyphenylacetone-reducing activity of the enzyme obtained in Example 1 was then measured. Activity at each temperature was expressed as a relative activity, where the maximum activity was regarded as 100 (FIG. 3). Optimal temperature (showing 80% or more relative activity) was 50° C. to 55° C.

[4] = Enzymatic synthesis of (S)-1-(3,4-dimethoxyphenyl)-2-propanol: optical purity and reaction yield; format: biochemical; settings: 0.25 U carbonyl reductase, 50 mM 3,4-dimethoxyphenylacetone, overnight, 25° C., pH 6.5
Experimental: A reaction was performed overnight at 25° C. in 1 mL of a reaction solution comprising 200 mM potassium phosphate buffer (pH 6.5), 1 mM NADP^+, 2 U glucose dehydroganase (Wako Pure Chemical Industries, Ltd.), 250 mM glucose, 0.25 U carbonyl reductase, and 50 mM 3,4-dimethoxyphenylacetone. The optical purity of the produced (S)-1-(3,4-dimethoxyphenyl)-2-propanol was measured as follows: One mL of ethyl acetate was added to 0.5 mL of the reaction solution to extract (S)-1-(3,4-dimethoxyphenyl)-2-propanol, and the extraction solvent was desolvated. 0.5 mL of a dissolving solution (n-hexane: isopropanol=4:1) was then added to dissolve the extract, which was then analyzed by liquid chromatography using an optical resolution column. CHIRALCEL OF (4.6 mm×25 cm; Daicel Chemical Industries, Ltd.) was used as the optical resolution column. Chromatography was performed with a wavelength of 220 nm, a flow rate of 1.0 mL/min, and at 40° C. using an eluting solution of n-hexane: isopropanol=4:1.
In addition, the (S)-1-(3,4-dimethoxyphenyl)-2-propanol thus-produced was quantified using gas chromatography, and a yield relative to the raw starting material, 3,4-dimethoxyphenylacetone, was obtained. Specifically, the analysis was performed at a column temperature of 210° C., using Thermon 3000 (10%)-Chromosorb W (AW-DMCS, Mesh 60–80; 3.2 mm×210 cm) with a hydrogen flame ionization detector (FID). The resulting reaction yield was about 95%.
To prepare crude enzyme solution for enzyme reaction, the crude enzyme solution prepared in Example 18 was concentrated ten-folds using a UF membrane. This solution was reacted overnight at 25° C. in 1 mL of a reaction solution comprising 200 mM potassium phosphate buffer (pH 6.5), 1 mM NADP^+, 2 U glucose dehydrogenase (Wako Pure Chemical Industries, Ltd.), 250 mM glucose, 0.2 U homolog enzyme, and 50 mM 3,4-dimethoxyphenylacetone. Optical purity was measured and the produced (S)-1-(3,4-dimethoxyphenyl)-2-propanol was quantified as in Example 6. As a result, YGL157w (pSE-YGP7) produced 93.7% ee (S)-1-(3,4-dimethoxyphenyl)-2-propanol at a yield of 66%, YGL039w (pSE-YGD9) produced 93.6% ee at a yield of 94%, and YDR541c (pSE-YDR1) produced 94.8% ee at a yield of 6%.

Molecule: COc1ccc(CC(C)=O)cc1OC [3,4-Dimethoxyphenylacetone]
- Relative activity (carbonyl reductase [1]): 100%
- Relative activity (carbonyl reductase [2]): 0.0%

B1: carbonyl reductase: NADPH-dependent carbonyl reductase purified from Torulaspora delbrueckii JCM 5921; amino acid sequence SEQ ID NO: 2 (protein, listed as Torulaspora delbrueckii)
chain: MSILVSGATGFIALHVVSDLLKQDYKVIGTVRSQEKADKLRKQFGNNPNLSFELVSDIAAPEAFDKVFQKHGKDIKVVLHTASPFTLETTNYEKDLLLPAVNGTKSILESIKKYAADSVERVVITSSYAAVMNVSKEGDGSIVYTEKDWNPATWENCQIDGLNAYCGSKKLAEKAAWDFFEDNKNVVKFKLSMINPTYVFGPQLFDEDVKDKLNTSCELINSIIKNNPQVGYLLENIKGHFVDVRDVAKAHLVAFQKDEAIGQRLLTSNGRFAYQDLVDIINEDFPQLKGKVIVGKPGAGKQLYGTFPDINNTRSKEILGFEFISLHKSVHDTAAQVLKKEGKL
- Specific activity of the purified enzyme [3]: 196 mU/mg
- Optical purity of the produced (S)-1-(3,4-dimethoxyphenyl)-2-propanol [4]: ≥ 99 % ee
- Reaction yield relative to 3,4-dimethoxyphenylacetone [4]: about 95%
